From US20250355001A1, “METHOD FOR DETECTING A TAU PROTEIN FRAGMENT IN A SAMPLE” (GTINVENT LIMITED, priority 2022, published 2025)
Positions count from the first letter of the chain named.

System: hT40, dGA, dGAE and truncated tau fragments
Test: Binding ELISA / epitope mapping of anti-tau scAbs with truncated tau proteins and 13mer peptides
Parameters: species or system human
Conditions: for Tau proteins/fragments with positive scAb reactivity: binding ELISA; for Shortest region bound on hT40: incl. 13mer peptides; for Epitope: residue numbers of SEQ ID NO: 1 (hT40), CDR Tables 1-11; for Detection scAb (Epitope): Table 28 (LoD table), residues of hT40
Experimental: A series of binding ELISA was performed using various truncated versions of the tau protein and 13mer peptide libraries spanning the entire hT40 molecule for mapping the epitopes of anti-tau scAbs (Full list of protein antigens used is given in Table 14). In general, ELISA plates were coated with 1 μg/ml hT40 or dGA or dGAE or other truncated versions of the protein and in the case of biotinylated peptides, plates were coated with 5 μg/ml Streptavidin followed by 1 μg/ml biotinylated peptide. The plates were blocked with 2% MPBS and scAb samples added at desired starting concentrations and double diluted across the plate. Binding was detected using anti-Human C Kappa HRP conjugated secondary antibody and the resulting immunoreaction was developed and absorbance values measured as described above.
Selected E specific scAbs and their specific binding to dGAE is shown below (FIG. 8A-E).
Similarly, dGA binding ‘NS’, ‘S’ and ‘M’ group scAbs were subjected to further antigen binding ELISA using shorter tau proteins and biotinylated 13mer peptides as shown below (FIG. 10A-F) and (FIG. 11A-R).

B1: S1B1: anti-tau clone, Table 2; SEQ ID NO: 412 (protein)
scFv: QVQLQESGPSLVKPSQTLSLTCTVSGFSLSSNSVGWVRQAPGKAPEWVAGIDTDGEEGYNPALNSRLSITRDTSKSQVSLSLSSVTSEDTAVYYCVRSYRTDGLAYGYVQAIDYWGPGLLVTVSSEGKSSGASGESKVDDQAVLTQPSSVSGSLGQRVSITCSGSFIGISSVGWFQQLPGSGLRTVIVASDGRPSGVPDRFSNSKSGNTATLTISSLQAEDEADYFCGSSDRTQYTGVFGSGTRLTVLG
modifications: S1B1 amino acid sequence
Tau proteins/fragments with positive scAb reactivity (Table 16, NS, S and M clones): hT40, 297-390 (dGA), 297-391 (dGAE) | Shortest region bound on hT40 (Table 16, NS, S and M clones): 367-379 | Epitope: 367-379

B2: 412E6: C-terminal anti-tau clone, Table 5; sequence in b349 (protein)
scAb: QVQLQESGPSLVKPSETLSLTCTVSGFSLTNYGVGWVRQAPGKALEWLGNIYSGGSTYYNPALKSRLSITRDTSKSQVSLSLNSVTLEDTAVYYCGRGGVGSVDVWGPGLLVTVSSEGKSSGASGESKVDDQAVLTQPPSVSGSPGQRVSITCSGGRNNIGRGTFVDWYQQLPGSGLKTVIYGTDRRPPGVPDRFSGSKTGNAATLTITSLQAEDEADYWCATYDYSNDMIILGSGTRLTVLG
Epitope: 412-441

B3: 412G11: C-terminal anti-tau clone, Table 5; SEQ ID NO: 434 (protein)
chain: QVRLQESGPSLVKPSQTLSLTCTVSGFSLTSYALGWVRQAPGRAPEWIGNIWRGGRIEYNPALKSRLSITRDTSKSQVSLSLSSVTTEDTAVYYCSRSGGDWGPGLLVTVSSEGKSSGASGESKVDDQAVLTQPSSVSGSLGQRVSITCSGSSSNVGYGNYVGWYQQVPGSAPKLLIYGATSRASGVPDRFSGSRSENTATLTISSLQAEDEADYYCASYDRSESVVFGSGTRLTVLG
modifications: 412G11 amino acid sequence
Epitope: 412-441

B4: 412E10: C-terminal anti-tau clone, Table 5; SEQ ID NO: 147 (protein)
chain: QVQLQESGPSLVKPSQTLSLTCTVSGFSVISDSVAWVRQAPGKVPEWLGASGSSGNKYYNPALKSRLSITRDTSKSQVSLSLSSVTTEDTAVYYCARGIIAGVDVWGRGLLVTVSSEGKSSGASGESKVDDQAVLTQPSSVSGSLGQRVSITCSGSSSNVGYGNYVGWYQQVPGSAPKLLIYGTAIRASGVPDRFSGSRSGDTATLTITSLQAEDEADYYCASYQSNYAFFGSGTRLTVLG
modifications: 412E10 amino acid sequence
Detection scAb (Epitope): 412E10 (412-441) | Epitope: 412-441

B5: 412B9: C-terminal anti-tau clone, Table 5; SEQ ID NO: 417 (protein)
chain: QVQLQESGPSLVKPSQTLSLTCTVSGFSVISDSVAWVRQAPGKVPEWLGASGSSGNKYYNPALKSRLSITRDTSKSQVSLSLSSVTTEDTAVYYCARGIIAGVDVWGRGLLVSVSSEGKSSGASGESKVDDQAVLTQPSSVSGALGQRVSITCSGSSSNVGYGDYVGWYQQVPGSAPKLLIYGAASRASGVPDRFSGSRSGNTATLTISSLQAEDEADYYCASYDSSDGGVFGSGTRLTVLG
modifications: 412B9 amino acid sequence
Epitope: 412-441

B6: CA7: anti-tau clone, Table 10; VH SEQ ID NO: 503, VL 504 (antibody, V domains shown)
VH: RVRLQGSGPSLVKPSQTLSLTCTVSGFSFDSYYVGWVRQAPGKALEWLGNIYSTGRAFYNPALKSRLSITRDTSKSQVSLSVSSVTIEDTALYYCVRGSYYHGGGNGMVDFFDYWSPGLLVTVSS
VL: QVVRTQPSSVSGSLGQRVSITCSGSSSNVGYGNYVGWFQQVPGSAPKLLIYAATSRASGVPDRFSGSRSGNTATLTIDSLQAEDEADYYCSSYQRGNTGVFGSGTRLTVLG
modifications: CA7 VH Domain; CA7 VL Domain
Tau proteins/fragments with positive scAb reactivity (Table 17, 'C' group scAbs): hT40, 1-319 | Shortest region bound on hT40 (Table 17, 'C' group scAbs): 1-319 | Epitope: 1-319

B7: E2A6: dGAE (391E) specific clone, Table 9; SEQ ID NO: 252 (protein)
scFv: QVQLQESGPSLVKPSQTLSLTCTVSGFSLTDWGVAWVRQAPGKALEWLGTMRSGGTTDDNPALKSRLSITRDTSKSQVSLSLSSVTTEDMAMYYCARGYLSGVHYAWGRGLLVTVSSEGKSSGASGESKVDDRVVRTQPSSVSKSLGQSVSITCSGSSSNVGAGNYVGWFQQVPGSAPKLLIYGATNRASGVPARFSGSKSGVTATLTITSLQAEDEADYYCASIDTSRSHIFGSGTRLTVLG
modifications: E2A6 amino acid sequence
Tau proteins/fragments with positive scAb reactivity (Table 15, residue numbers of hT40): 297-391 (dGAE)

B8: NS1G7: anti-tau clone, Table 10; SEQ ID NO: 374 (protein)
scFv: QVQLQESGPSLVKPSQTLSLTCTVSGFSLTSYGVGWVRQAPGKTLEWISSISSGGTTFYNPALKSRLSITRDTSESQVSLSLSSVTTEDTAVYYCTRDVHIYYNDYGAAYGDRDYWGPGLLVTVSSEGKSSGASGESKVDDQAVVTQPPSVSGSPGQRVSITCSGSSSNIGGGNYVSWYQQLPGSGLRTLIYGTTSRASGVPDRFSGSGSGNTATLTISSLQAEDEADYYCASYDTNSGSVFGSGTRLTVLG
modifications: NS1G7 amino acid sequence
Tau proteins/fragments with positive scAb reactivity (Table 16, NS, S and M clones): hT40, 297-390 (dGA), 297-391 (dGAE), 275-305, 337-368

B9: S1G10: anti-tau clone, Table 2; SEQ ID NO: 415 (protein)
scFv: B1 scFv with S30T, V96G, T101A, V150M, V186I, N203M
modifications: S1G10 amino acid sequence
Tau proteins/fragments with positive scAb reactivity (Table 16, NS, S and M clones): hT40, 297-390 (dGA), 297-391 (dGAE), 369-390, 369-391 | Shortest region bound on hT40 (Table 16, NS, S and M clones): 367-379 | Detection scAb (Epitope): S1G10 (367-379)

B10: CA12: anti-tau clone, Tables 2 and 10; SEQ ID NO: 372 (protein)
chain: QVQLQGSGPSLVKPSQTLSLTCTVSGFSFDSYYVGWVRQAPGKALEWLGNIYSTGRAFYNPALKSRLSITRDTSKSQVSLSVSSVTIEDTALYYCVRGSYYHGGGNGMVDFFDYWSPGLLVTVSSEGKSSGASGESKVDDQVVRTQPSSVSGSLGQRVSITCSGSSSNVGYGNYVGWFQQVPGSAPKLLIYAATSRASGVPDRFSGSRSGNTATLTIDSLQAEDEADYYCSSYQRGNTGVFGSGTRLTVLG
modifications: CA12 amino acid sequence
Tau proteins/fragments with positive scAb reactivity (Table 17, 'C' group scAbs): hT40, 297-390 (dGA) | Shortest region bound on hT40 (Table 17, 'C' group scAbs): 367-379

B11: CB2: anti-tau clone, Tables 2 and 10; SEQ ID NO: 369 (protein)
scFv: QVQLQESGPSLVKPSQTLSLTCTVSGFSLSTNSVGWVRQAPGKAPEWVAGIDTDGEEGFNPVLKSRLSITRDTSKSQVSLSLSNVTSEDTAVYYCGRSYRTDGLAYGYVQAIDYWGPGLLVTISSEGKSSGASGESKVDDQSVLTQPSSVSGSPGQTVSITCSGSYIGSSGVGWFQQLPGSGLRTIIVASDGRPSGVPDRFSMSKSGNTATLTISSLQAEDEADYFCGSSDRTQYTGLFGSGTRLTVLG
modifications: CB2 amino acid sequence
Tau proteins/fragments with positive scAb reactivity (Table 17, 'C' group scAbs): hT40, 348-441 | Shortest region bound on hT40 (Table 17, 'C' group scAbs): 359-391
